Data set [1] concerns HeLa Kyoto. The data set is described as follows: solubility change mitosis vs G1/S (difference of NP-40 vs SDS log2 ratios) (log2 ratio difference); higher = more soluble in mitosis.
Data set [2] has as its system HeLa Kyoto. The data set is described as follows: thermal stability score vs G1/S (z-score of summed log2 fold changes over temperatures); higher = more thermally stable than in G1/S.
The subject of data set [3] is HeLa Kyoto. The data set is described as follows: melting temperature (median over replicates), in situ; higher = more thermally stable.
Data set [4] deals with HeLa Kyoto. The data set can be described thus: solubility in G1/S (NP-40 vs SDS abundance) (log2 ratio); higher = more soluble. Particulars: cell cycle stage: G1/S.
[5] abbreviates: cell cycle stage: early G1 (4.5 h after nocodazole release).
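Throughout, for melting temperature (median over replicates), in situ: HeLa Kyoto cells synchronized by double thymidine or nocodazole block, proteins quantified by TMT10plex mass spectrometry, three independent biological replicates.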
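Throughout, for solubility change mitosis vs G1/S (difference of NP-40 vs SDS log2 ratios): synchronized HeLa Kyoto cells (double thymidine block for G1/S, nocodazole release for mitosis), protein amounts in NP-40 versus SDS lysates quantified by mass spectrometry, three biological replicates.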
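Throughout, for solubility in G1/S (NP-40 vs SDS abundance): HeLa Kyoto cells arrested at G1/S by double thymidine block, proteins quantified by TMT10plex mass spectrometry in mild NP-40 versus SDS extracts, three biological replicates.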
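Throughout, for thermal stability score vs G1/S (z-score of summed log2 fold changes over temperatures): synchronized HeLa Kyoto cells, proteins quantified by TMT10plex mass spectrometry, three biological replicates, mitosis taken 0.5 h after nocodazole release, G1/S directly after double thymidine block.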

“MEESHFNSNPYFWPSIPTVSGQIENTMFINKMKDQLLPEKGCGLAPPHYPTLLTVPASVSLPSGISMDTESKSDQLTPHSQASVTQNITVVPVPSTGLMTAGVSCSQRWRREGSQSRGPGLVITSPSGSLVTTASSAQTFPISAPMIVSALPPGSQALQVVPDLSKKVASTLTEEGGGGGGGGGSVAPKPPRGRKKKRMLESGLPEMNDPYVLSPEDDDDHQKDGKTYRCRMCSLTFYSKSEMQIHSKSHTETKPHKCPHCSKTFANSSYLAQHIRIHSGAKPYSCNFCEKSFRQLSHLQQHTRIHSKMHTETIKPHKCPHCSKTFANTSYLAQHLRIHSGAKPYNCSYCQKAFRQLSHLQQHTRIHTGDRPYKCAHPGCEKAFTQLSNLQSHRRQHNKDKPFKCHNCHRAYTDAASLEVHLSTHTVKHAKVYTCTICSRAYTSETYLMKHMRKHNPPDLQQQVQAAAAAAAVAQAQAQAQAQAQAQAQAQAQAQASQASQQQQQQQQQQQQQQQQPPPHFQSPGAAPQGGGGGDSNPNPPPQCSFDLTPYKTAEHHKDICLTVTTSTIQVEHLASS [ZNF384]”: the “solubility change mitosis (log2)” value with HeLa Kyoto [1] worked out at 0.0582. The thermal stability score with HeLa Kyoto [2] (setting [5]) was -0.69; in the data set on HeLa Kyoto [2] (cell cycle stage: mitosis), -1.1. The melting temperature with HeLa Kyoto [3] (cell cycle stage: G1/S) was determined as 51.6 °C; with HeLa Kyoto [3] (cell cycle stage: mitosis), 52.4 °C. Besides, in the data set with HeLa Kyoto [4], the “solubility in G1/S (log2)” value is -0.109.

Consider “MNGEADCPTDLEMAAPKGQDRWSQEDMLTLLECMKNNLPSNDSSKFKTTESHMDWEKVAFKDFSGDMCKLKWVEISNEVRKFRTLTELILDAQEHVKNPYKGKKLKKHPDFPKKPLTPYFRFFMEKRAKYAKLHPEMSNLDLTKILSKKYKELPEKKKMKYIQDFQREKQEFERNLARFREDHPDLIQNAKKSDIPEKPKTPQQLWYTHEKKVYLKVRPDATTKEVKDSLGKQWSQLSDKKRLKWIHKALEQRKEYEEIMRDYIQKHPELNISEEGITKSTLTKAERQLKDKFDGRPTKPPPNSYSLYCAELMANMKDVPSTERMVLCSQQWKLLSQKEKDAYHKKCDQKKKDYEVELLRFLESLPEEEQQRVLGEEKMLNINKKQATSPASKKPAQEGGKGGSEKPKRPVSAMFIFSEEKRRQLQEERPELSESELTRLLARMWNDLSEKKKAKYKAREAALKAQSERKPGGEREERGKLPESPKRAEEIWQQSVIGDYLARFKNDRVKALKAMEMTWNNMEKKEKLMWIKKAAEDQKRYERELSEMRAPPAATNSSKKMKFQGEPKKPPMNGYQKFSQELLSNGELNHLPLKERMVEIGSRWQRISQSQKEHYKKLAEEQQKQYKVHLDLWVKSLSPQDRAAYKEYISNKRKSMTKLRGPNPKSSRTTLQSKSESEEDDEEDEDDEDEDEEEEDDENGDSSEDGGDSSESSSEDESEDGDENEEDDEDEDDDEDDDEDEDNESEGSSSSSSSSGDSSDSDSN [UBTF]”, for which the “solubility change mitosis (log2)” value with HeLa Kyoto [1] amounted to 0.149. The figures for the thermal stability score in the data set on HeLa Kyoto [2] (setting [5]) and in the data set with HeLa Kyoto [2] (cell cycle stage: mitosis) were 8.89 and 15.5, respectively. In the data set with HeLa Kyoto [3] (cell cycle stage: G1/S), the melting temperature was determined as 47.2 °C. Besides, the “solubility in G1/S (log2)” value in the data set with HeLa Kyoto [4] was -1.89.

Consider “MDLWPGAWMLLLLLFLLLLFLLPTLWFCSPSAKYFFKMAFYNGWILFLAVLAIPVCAVRGRNVENMKILRLMLLHIKYLYGIRVEVRGAHHFPPSQPYVVVSNHQSSLDLLGMMEVLPGRCVPIAKRELLWAGSAGLACWLAGVIFIDRKRTGDAISVMSEVAQTLLTQDVRVWVFPEGTRNHNGSMLPFKRGAFHLAVQAQVPIVPIVMSSYQDFYCKKERRFTSGQCQVRVLPPVPTEGLTPDDVPALADRVRHSMLTVFREISTDGRGGGDYLKKPGGGG [AGPAT1]”, for which the “solubility change mitosis (log2)” value in the data set on HeLa Kyoto [1] came to 0.0448. The thermal stability score with HeLa Kyoto [2] (setting [5]) turned out to be 0.708; in the data set with HeLa Kyoto [2] (cell cycle stage: mitosis), 0.125. Besides, the figures for the melting temperature in the data set with HeLa Kyoto [3] (cell cycle stage: G1/S) and with HeLa Kyoto [3] (cell cycle stage: mitosis) were 53.3 °C and 52.7 °C, respectively. Further, the “solubility in G1/S (log2)” value with HeLa Kyoto [4] was -0.318.

In the case of “MSATSVDQRPKGQGNKVSVQNGSIHQKDAVNDDDFEPYLSSQTNQSNSYPPMSDPYMPSYYAPSIGFPYSLGEAAWSTAGDQPMPYLTTYGQMSNGEHHYIPDGVFSQPGALGNTPPFLGQHGFNFFPGNADFSTWGTSGSQGQSTQSSAYSSSYGYPPSSLGRAITDGQAGFGNDTLSKVPGISSIEQGMTGLKIGGDLTAAVTKTVGTALSSSGMTSIATNSVPPVSSAAPKPTSWAAIARKPAKPQPKLKPKGNVGIGGSAVPPPPIKHNMNIGTWDEKGSVVKAPPTQPVLPPQTIIQQPQPLIQPPPLVQSQLPQQQPQPPQPQQQQGPQPQAQPHQVQPQQQQLQNRWVAPRNRGAGFNQNNGAGSENFGLGVVPVSASPSSVEVHPVLEKLKAINNYNPKDFDWNLKNGRVFIIKSYSEDDIHRSIKYSIWCSTEHGNKRLDAAYRSLNGKGPLYLLFSVNGSGHFCGVAEMKSVVDYNAYAGVWSQDKWKGKFEVKWIFVKDVPNNQLRHIRLENNDNKPVTNSRDTQEVPLEKAKQVLKIIATFKHTTSIFDDFAHYEKRQEEEEAMRRERNRNKQ [YTHDF3]”, the “solubility change mitosis (log2)” value in the data set with HeLa Kyoto [1] is -0.0838. The thermal stability score in the data set on HeLa Kyoto [2] (setting [5]) was -0.535; with HeLa Kyoto [2] (cell cycle stage: mitosis), -3.39. Moreover, the melting temperature in the data set with HeLa Kyoto [3] (cell cycle stage: G1/S) was 52.4 °C; in the data set on HeLa Kyoto [3] (cell cycle stage: mitosis) it was 51.6 °C. Besides, the “solubility in G1/S (log2)” value in the data set with HeLa Kyoto [4] came to 0.098.

As to “MAMARLGSWLGEAQWLALVSLFVAALATVGLYLAQWALARARPQPQRRAVEPGEGPRPGSDALLSWILTLGSWRSQWQAAWVTALNEEAERKGGPPFLSFEEDPRQQALELVVQEVSSVLRSAEEKVVVCHVVGQAIQFLVSETPALGAGCRLYDMRLSPFHLQLEFHMKEKREDLQISWSFISVPEMAVNIQPKALGEDQVAETSAMSDVLKDILKHLAGSASPSVVLITKPTTVKEAQNLQCAASTAQESCPPKPPRAHELKLLVRNIHVLLLSEPGASGHINAVCVVQLNDPVQRFSSTLTKNTPDLMWEEEFTFELNAKSKELHLQISEAGRSSEGLLATATVPLDLFKKQPSGPQSFTLTSGSACGSSVLGSVTAEFSYMEPGELKSWPIPPPVPAAKIEKDRTVMPCGTVVTTVTAVKTKPRVDVGRASPLSSDSPVKTPIKVKVIEKDISVQAIACRSAPVSKTLSSSDTELLVLNGSDPVAEVAIRQLSESSKLKLKSPRKKSTIIISGISKTSLSQDHDAALMQGYTASVDSTHQEDAPSHPERAAASAPPEEAESAQASLAPKPQEDELDSWDLEKEPQAAAWSSQVLLDPDGDELSESSMSVLEPGTAKKHKGGILRKGAKLFFRRRHQQKDPGMSQSHNDLVFLEQPEGSRRKGITLTRILNKKLLSRHRNKNTMNGAPVEPCT [C2CD2]”, in the data set on HeLa Kyoto [1], the “solubility change mitosis (log2)” value is 0.0576. For the same sequence, the thermal stability score was 0.427 with HeLa Kyoto [2] (setting [5]) and 1.24 in the data set with HeLa Kyoto [2] (cell cycle stage: mitosis). For the same sequence, the melting temperature in the data set with HeLa Kyoto [3] (cell cycle stage: G1/S) amounted to 50.9 °C. In addition, in the data set with HeLa Kyoto [4], the “solubility in G1/S (log2)” value worked out at 0.0136.
